Some results are limits rather than exact numbers.

The test deals with purified CD26 (dipeptidyl-peptidase IV, EC 3.4.14.5) (human) (UniProt P27487). As to the kind of experiment: cell-based or functional assay.
purified CD26 (dipeptidyl-peptidase IV, EC 3.4.14.5) (human), sequence (P27487 whole entry, form in doubt): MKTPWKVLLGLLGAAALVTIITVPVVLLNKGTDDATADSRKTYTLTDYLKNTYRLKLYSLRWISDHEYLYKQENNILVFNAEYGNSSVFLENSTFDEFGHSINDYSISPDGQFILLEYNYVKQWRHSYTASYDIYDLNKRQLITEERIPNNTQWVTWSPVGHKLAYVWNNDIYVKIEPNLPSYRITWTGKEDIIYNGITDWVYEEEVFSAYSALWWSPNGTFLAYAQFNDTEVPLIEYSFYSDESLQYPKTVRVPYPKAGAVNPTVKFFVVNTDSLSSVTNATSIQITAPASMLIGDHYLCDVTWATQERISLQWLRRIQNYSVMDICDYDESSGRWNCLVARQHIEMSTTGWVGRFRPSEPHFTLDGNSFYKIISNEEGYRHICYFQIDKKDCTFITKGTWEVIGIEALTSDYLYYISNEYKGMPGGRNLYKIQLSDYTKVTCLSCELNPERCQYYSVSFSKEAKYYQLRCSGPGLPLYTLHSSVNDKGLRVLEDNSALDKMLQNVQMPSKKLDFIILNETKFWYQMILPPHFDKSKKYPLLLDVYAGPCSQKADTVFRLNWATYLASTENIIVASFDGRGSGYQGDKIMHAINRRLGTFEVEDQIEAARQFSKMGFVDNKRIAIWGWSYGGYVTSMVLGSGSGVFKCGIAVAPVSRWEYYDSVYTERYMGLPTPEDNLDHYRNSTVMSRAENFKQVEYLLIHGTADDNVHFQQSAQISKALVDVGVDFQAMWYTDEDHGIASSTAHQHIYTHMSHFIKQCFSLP

Substance Diprotin A (peptide) registered an inhibition of conversion of 50 µM CAM-405 to CAM-212 by purified CD26, 100 µM diprotin A of more than 50%.

(Values after patent US20070275900A1.)
